Data on five molecules can be found in US20220387578A1 (VANDERBILT UNIVERSITY, published 2022).

As usually defined, the EC50 is the concentration giving half of the maximal effect.

B1: rFluA-20 heavy chain mutant Y34A (antibody, V domains shown)
VH: QVQLQESGPGLVKPSETLSLTCSVSGVSVTSDIAYWTWIRQPPGKGLEWIGYIFYNGDTNYNPSLKSRVTMSIDTSKNEFSLRLTSVTAADTAVYFCARGTEDLGYCSSGSCPNHWGQGTLVTVSS
VL: DIQMTQSPSSLSASIGDRVTITCRPSQNIRSFLNWFQHKPGKAPKLLIYAASNLQSGVPSRFSGSGSGTEFTLTIRSLQPEDFATYYCQQSYNTPPTFGQGTKVEIK
B2: rFluA-20 light chain mutant N53A (antibody, V domains shown)
VH: QVQLQESGPGLVKPSETLSLTCSVSGVSVTSDIYYWTWIRQPPGKGLEWIGYIFYNGDTNYNPSLKSRVTMSIDTSKNEFSLRLTSVTAADTAVYFCARGTEDLGYCSSGSCPNHWGQGTLVTVSS
VL: DIQMTQSPSSLSASIGDRVTITCRPSQNIRSFLNWFQHKPGKAPKLLIYAASALQSGVPSRFSGSGSGTEFTLTIRSLQPEDFATYYCQQSYNTPPTFGQGTKVEIK
B3: rFluA-20 heavy chain mutant Y100aA (antibody, V domains shown)
VH: QVQLQESGPGLVKPSETLSLTCSVSGVSVTSDIYYWTWIRQPPGKGLEWIGYIFYNGDTNYNPSLKSRVTMSIDTSKNEFSLRLTSVTAADTAVYFCARGTEDLGACSSGSCPNHWGQGTLVTVSS
VL: DIQMTQSPSSLSASIGDRVTITCRPSQNIRSFLNWFQHKPGKAPKLLIYAASNLQSGVPSRFSGSGSGTEFTLTIRSLQPEDFATYYCQQSYNTPPTFGQGTKVEIK
B4: rFluA-20 heavy chain mutant E97A (antibody, V domains shown)
VH: QVQLQESGPGLVKPSETLSLTCSVSGVSVTSDIYYWTWIRQPPGKGLEWIGYIFYNGDTNYNPSLKSRVTMSIDTSKNEFSLRLTSVTAADTAVYFCARGTADLGYCSSGSCPNHWGQGTLVTVSS
VL: DIQMTQSPSSLSASIGDRVTITCRPSQNIRSFLNWFQHKPGKAPKLLIYAASNLQSGVPSRFSGSGSGTEFTLTIRSLQPEDFATYYCQQSYNTPPTFGQGTKVEIK
B5: rFluA-20 heavy chain mutant T96A (antibody, V domains shown)
VH: QVQLQESGPGLVKPSETLSLTCSVSGVSVTSDIYYWTWIRQPPGKGLEWIGYIFYNGDTNYNPSLKSRVTMSIDTSKNEFSLRLTSVTAADTAVYFCARGAEDLGYCSSGSCPNHWGQGTLVTVSS
VL: DIQMTQSPSSLSASIGDRVTITCRPSQNIRSFLNWFQHKPGKAPKLLIYAASNLQSGVPSRFSGSGSGTEFTLTIRSLQPEDFATYYCQQSYNTPPTFGQGTKVEIK

This assay has as its target H3 HA A/Hong Kong/1/1968 (H3N2), recombinant soluble trimer (influenza A virus, UniProt Q91MA7 17-530).
On to B1, for which the EC50 was 0.07 µg/mL. With B2, the EC50 came to 0.06 µg/mL.

With B3, the 50% effective concentration (EC50) was 0.07 µg/mL.

For the molecule B4, the EC50 worked out at 0.07 µg/mL. Next, B5: 0.1 µg/mL.
